Results on two molecules are retold here after article PMC11192315 (PLOS Pathogens, 2024).

Test [1] concerns the target RBD of SARS-CoV-2 Omicron BA.1 (SARS-CoV-2 Omicron BA.1, E484 to A484 | Q493R | Q498R | N501Y). Briefly: cell-based or functional assay.
The target of test [2] is RBD of SARS-CoV-2 Omicron BA.2 (SARS-CoV-2 Omicron BA.2, D405N | R408S | E484 to A484 | Q493R). As to the kind of experiment: cell-based or functional assay.

Substitutions are numbered along the chain they refer to. Numbers in names are those of the source.

B1: JM-1A N59F mutant (antibody, V domains shown)
VH: QVQLQQSGPGLVKPSGTLSLTCAVSGASISSGDWWSWVRQSPGRGLEWIGGIFHSGTTFYSPSLKSRVTMSVDQPKNQFSLHLTSVTAADTAVYYCARMRGIFDYWGQGTLVTVSS
VL: DIQLTQSPSSLSVSVGDRVTITCRASQAISNSLAWYQQKPGKAPKLLLYAASTLESGVPSRFSGSGSGTDFTLTISSLQPEDFATYYCQHYYSTPFFGGGTKVEIK
As for B1, the “IC50, neutralisation of pseudotyped lentivirus with Omicron BA.1 spike” value in test [1] is 0.018 µg/mL. For the same molecule, the “IC50, neutralisation of pseudotyped lentivirus with Omicron BA.2 spike” value in test [2] was 0.011 µg/mL.

B2: JM-1A-G32F (antibody, V domains shown)
VH: B1 VH with G32F, F59N
VL: B1 VL
Regarding B2, the “IC50, neutralisation of pseudotyped lentivirus with Omicron BA.1 spike” value in test [1] is 0.019 µg/mL. Moreover, in test [2], the “IC50, neutralisation of pseudotyped lentivirus with Omicron BA.2 spike” value was determined as 0.03 µg/mL.
